# Results published in IntAct's records for PubMed 29128334.
# B1: Dihydrolipoyl dehydrogenase, mitochondrial (Homo sapiens), P09622 (parent)
# chain: MQSWSRVYCSLAKRGHFNRISHGLQGLSAVPLRTYADQPIDADVTVIGSGPGGYVAAIKAAQLGFKTVCIEKNETLGGTCLNVGCIPSKALLNNSHYYHMAHGKDFASRGIEMSEVRLNLDKMMEQKSTAVKALTGGIAHLFKQNKVVHVNGYGKITGKNQVTATKADGGTQVIDTKNILIATGSEVTPFPGITIDEDTIVSSTGALSLKKVPEKMVVIGAGVIGVELGSVWQRLGADVTAVEFLGHVGGVGIDMEISKNFQRILQKQGFKFKLNTKVTGATKKSDGKIDVSIEAASGGKAEVITCDVLLVCIGRRPFTKNLGLEELGIELDPRGRIPVNTRFQTKIPNIYAIGDVVAGPMLAHKAEDEGIICVEGMAGGAVHIDYNCVPSVIYTHPEVAWVGKSEEQLKEEGIEYKVGKFPFAANSRAKTNADTDGMVKILGQKSTDRVLGAHILGPGAGEMVNEAALALEYGASCEDIARVCHAHPTLSEAFREANLAASFGKSINF
# partner: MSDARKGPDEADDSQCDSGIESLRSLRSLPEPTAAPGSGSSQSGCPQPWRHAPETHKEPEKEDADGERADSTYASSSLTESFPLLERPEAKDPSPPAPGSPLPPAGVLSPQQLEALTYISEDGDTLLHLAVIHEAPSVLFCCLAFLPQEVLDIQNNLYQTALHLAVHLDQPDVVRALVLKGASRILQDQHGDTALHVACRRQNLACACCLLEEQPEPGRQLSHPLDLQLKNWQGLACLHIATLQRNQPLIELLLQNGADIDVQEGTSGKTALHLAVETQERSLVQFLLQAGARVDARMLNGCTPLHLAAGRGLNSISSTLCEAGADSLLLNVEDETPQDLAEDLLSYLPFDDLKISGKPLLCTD
# B2: Peroxiredoxin-5, mitochondrial (Homo sapiens), P30044 (parent)
# chain: MGLAGVCALRRSAGYILVGGAGGQSAAAAARRYSEGEWASGGVRSFSRAAAAMAPIKVGDAIPAVEVFEGEPGNKVNLAELFKGKKGVLFGVPGAFTPGCSKTHLPGFVEQAEALKAKGVQVVACLSVNDAFVTGEWGRAHKAEGKVRLLADPTGAFGKETDLLLDDSLVSIFGNRRLKRFSMVVQDGIVKALNVEPDGTGLTCSLAPNIISQL
# B3: Serine/threonine-protein kinase PINK1, mitochondrial (Homo sapiens), Q9BXM7 (parent)
# chain: MAVRQALGRGLQLGRALLLRFTGKPGRAYGLGRPGPAAGCVRGERPGWAAGPGAEPRRVGLGLPNRLRFFRQSVAGLAARLQRQFVVRAWGCAGPCGRAVFLAFGLGLGLIEEKQAESRRAVSACQEIQAIFTQKSKPGPDPLDTRRLQGFRLEEYLIGQSIGKGCSAAVYEATMPTLPQNLEVTKSTGLLPGRGPGTSAPGEGQERAPGAPAFPLAIKMMWNISAGSSSEAILNTMSQELVPASRVALAGEYGAVTYRKSKRGPKQLAPHPNIIRVLRAFTSSVPLLPGALVDYPDVLPSRLHPEGLGHGRTLFLVMKNYPCTLRQYLCVNTPSPRLAAMMLLQLLEGVDHLVQQGIAHRDLKSDNILVELDPDGCPWLVIADFGCCLADESIGLQLPFSSWYVDRGGNGCLMAPEVSTARPGPRAVIDYSKADAWAVGAIAYEIFGLVNPFYGQGKAHLESRSYQEAQLPALPESVPPDVRQLVRALLQREASKRPSARVAANVLHLSLWGEHILALKNLKLDKMVGWLLQQSAATLLANRLTEKCCVETKMKMLFLANLECETLCQAALLLCSWRAAL
# partner: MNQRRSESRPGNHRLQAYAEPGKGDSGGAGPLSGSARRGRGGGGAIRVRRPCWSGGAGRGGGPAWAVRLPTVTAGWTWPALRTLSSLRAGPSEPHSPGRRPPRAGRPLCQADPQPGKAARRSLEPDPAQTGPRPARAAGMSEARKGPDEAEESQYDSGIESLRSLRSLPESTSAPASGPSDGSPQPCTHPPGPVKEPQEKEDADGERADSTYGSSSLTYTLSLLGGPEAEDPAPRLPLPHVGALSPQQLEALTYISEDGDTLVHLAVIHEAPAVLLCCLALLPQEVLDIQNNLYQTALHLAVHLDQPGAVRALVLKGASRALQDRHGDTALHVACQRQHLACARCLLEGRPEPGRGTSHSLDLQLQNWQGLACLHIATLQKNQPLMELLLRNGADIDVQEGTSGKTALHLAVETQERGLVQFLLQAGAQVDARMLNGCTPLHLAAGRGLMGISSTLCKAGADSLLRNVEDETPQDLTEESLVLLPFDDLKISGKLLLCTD
# Variants of: B1
# Details: with ikbe_mouse Nfkbie
row,effect of a mutation on the interaction,Variant
1,disrupting interaction strength,S491A

# Variants of: B2
# Details: with sodc_human SOD1, P00441
# Chain of sodc_human SOD1, P00441 (P00441 whole entry): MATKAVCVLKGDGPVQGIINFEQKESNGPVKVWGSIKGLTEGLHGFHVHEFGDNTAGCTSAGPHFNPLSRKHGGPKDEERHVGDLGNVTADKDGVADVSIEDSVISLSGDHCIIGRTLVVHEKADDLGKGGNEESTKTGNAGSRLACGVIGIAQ
row,effect of a mutation on the interaction,Variant
1,disrupting interaction strength,K85R
2,with no effect,E80K
3,with no effect,K83R

# Variants of: B3
# Details: with ikbe_human NFKBIE
row,effect of a mutation on the interaction,Variant
1,disrupting interaction strength,A168P
